The results in this text go back to patent US20230406927A1 (REGENTS OF THE UNIVERSITY OF MINNESOTA, published 2023).

In assay [1] the target is T1, CD3ε receptor on the surface of T cells (human, UniProt P07766 23-207).
T1 construct: whole, on cells; The target stood on primary T cells, where CD3ε is part of the TCR/CD3 complex; also called human CD3ε; CD3 epsilon chain
Description: ratio of apparent KD values from the flow cytometry titration on T cells; reference is unmasked anti-CD3-1DD. Here is the method: (§1) The apparent affinity of the fusion proteins was determined using flow cytometry with T cells isolated from healthy donor blood.

Assay [2] addresses T1, CD3ε receptor on the surface of T cells. In words: dose-dependent titration by flow cytometry on T cells isolated from healthy donor blood; apparent KD. Here is the method: as §1

Where only a bound is given, the exact number is not on record here.

T1 sequence (P07766 23-207): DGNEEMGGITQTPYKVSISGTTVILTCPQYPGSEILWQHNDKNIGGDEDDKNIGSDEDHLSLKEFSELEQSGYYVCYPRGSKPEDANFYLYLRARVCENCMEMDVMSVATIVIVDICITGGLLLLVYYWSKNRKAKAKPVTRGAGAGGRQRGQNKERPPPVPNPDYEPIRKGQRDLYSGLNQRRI

B1: hHINT1-anti-CD3-1DD fusion protein (VHH)
chain: MGHHHHHHMADEIAKAQVARPGGDTIFGKIIRKEIPAKIIFEDDRSLAFHDISPQAPTHFLVIPKKHISQISVAEDDDESLLGHLMIVGKKSAADLGLNKGYRMEVNEGSDGGQSVYHVHLHVLGGRQMHWPPGGGSGGGPLGVRGSGGELEVQLLEEVQLVESGGGLVQPGGSLRLSCAASGFTFDDYGMSWVRQAPGKWLEWVSDISWNGGSTYYADSVKGRFTISRDNAENTLYLQMNSLKPDDTAVYYCAKMGEGGWGANDYWGQGTQVTVSSGGGASGGGGSGGGGSGISLIAALAVDRVIGMENAMPWNLPADLAWFKRNTLNKPVIMGRHTWESIGRPLPGRKNIILSSQPGTDDRVTWVKSVDEAIAAAGDVPEIMVIGGGRVYEQFLPKAQKLYLTHIDAEVEGDTHFPDYEPDDWESVFSEFHDADAQNSHSYSFEILERRGGISLIAALAVDRVIGMENAMPWNLPADLAWFKRNTLNKPVIMGRHTWESIGRPLPGRKNIILSSQPGTDDRVTWVKSVDEAIAAAGDVPEIMVIGGGRVYEQFLPKAQKLYLTHIDAEVEGDTHFPDYEPDDWESVFSEFHDADAQNSHSYSFEILERRGGGLKDYKDDDDK
notes: Masked form; also called hHINT1-αCD3-1DD; HINT1-αCD3-1DD
On to B1, for which, in assay [1], the “fold reduction of binding affinity against anti-CD3-1DD” value is about 40 fold. Besides, in assay [2], the Kd was over 4000 nM.

B2: anti-CD3-1DD fusion protein (VHH)
chain: MGHHHHHHEVQLLEEVQLVESGGGLVQPGGSLRLSCAASGFTFDDYGMSWVRQAPGKWLEWVSDISWNGGSTYYADSVKGRFTISRDNAENTLYLQMNSLKPDDTAVYYCAKMGEGGWGANDYWGQGTQVTVSSGGGASGGGGSGGGGSGISLIAALAVDRVIGMENAMPWNLPADLAWFKRNTLNKPVIMGRHTWESIGRPLPGRKNIILSSQPGTDDRVTWVKSVDEAIAAAGDVPEIMVIGGGRVYEQFLPKAQKLYLTHIDAEVEGDTHFPDYEPDDWESVFSEFHDADAQNSHSYSFEILERRGGISLIAALAVDRVIGMENAMPWNLPADLAWFKRNTLNKPVIMGRHTWESIGRPLPGRKNIILSSQPGTDDRVTWVKSVDEAIAAAGDVPEIMVIGGGRVYEQFLPKAQKLYLTHIDAEVEGDTHFPDYEPDDWESVFSEFHDADAQNSHSYSFEILERRGGGLKDYKDDDDK
notes: Anti-CD3 nanobody fused to an E. coli DHFR dimer (1DD); also called αCD3-1DD; anti-CD3-DHFR2 fusion protein
For the molecule B2, the Kd in assay [2] amounted to 100 nM.
